Source: patent publication US20150037348A1 (AbbVie / Abbott, published 2015)
Where a chain is given by its changes, count along the chain named.

B1: 31-A6 (scFv, V domains shown)
VH: QVQLVQSGGGVVQPGRSLRLSCAASGFTFSSYGMHWVRQAPGKGLEWVAFIRYDGSNKYYADSVKGRFTISRDNSKNTLYLQMKSLRAEDTAVYYCKTHGSHDNWGQGTMVTVSS
VL: SYVLTQPPSVSGTPGQRVTISCSGGRSNIGSNTVKWYQQLPGTAPKLLIYGNDQRPSGVPDRFSGSKSGTSASLAITGVQAEDEADYYCQSYDRGTHPNLNFGTGTKVTVL
notes: scFv
B2: 101-14 (scFv, V domains shown)
VH: B1 VH with K97T, H102Y, N104Y
VL: B1 VL with T96F, H97T, P98G, N99S, L100R, N101V
notes: scFv
B3: 70-2 (scFv, V domains shown)
VH: B1 VH with K97T, H102Y, N104Y
VL: B1 VL with R94S, G95S, T96L, H97R, P98G, N99S, L100R, N101V
notes: scFv
B4: B3 (scFv, V domains shown)
VH: B1 VH
VL: B1 VL with H97P, P98S, N99Y, L100P, N101T
notes: scFv
B5: A5 (scFv, V domains shown)
VH: B1 VH
VL: B1 VL with N99S, L100M, N101L
notes: scFv
B6: 170-1 (scFv, V domains shown)
VH: B1 VH with K97T, H99S, H102Y, N104Y
VL: B1 VL with T96F, H97T, P98G, N99F, L100K, N101V
notes: scFv
B7: B5 (scFv, V domains shown)
VH: B1 VH
VL: B1 VL with T96Q, H97P, P98H, N99A, L100V, N101L
notes: scFv
B8: 177-H10 (scFv, V domains shown)
VH: B1 VH
VL: B1 VL with N99T, L100M, N101Y
notes: scFv
B9: A9 (scFv, V domains shown)
VH: B1 VH
VL: B1 VL with T96P, H97A, P98R, N99T, L100S, N101P
notes: scFv
B10: 43-G2 (scFv, V domains shown)
VH: B1 VH
VL: B1 VL with T96S, H97S, N99A, L100I, N101M
notes: scFv
B11: 156-17 (scFv, V domains shown)
VH: B1 VH with K97T
VL: B1 VL with R94S, G95S, T96L, H97W, P98G, N99T, L100R, N101V
notes: scFv
B12: 170-35 (scFv, V domains shown)
VH: B1 VH with K97A, H102Q
VL: B1 VL with T96F, H97T, P98G, N99S, L100R, N101V
notes: scFv
B13: 101-4 (scFv, V domains shown)
VH: B1 VH with K97T, H99S, H102I, N104Y
VL: B1 VL with R94S, G95S, T96L, H97T, P98G, N99S, L100R, N101V
notes: scFv
B14: 103-1 (scFv, V domains shown)
VH: B1 VH with K97T, H99Q, S101R
VL: B1 VL with T96F, H97T, P98G, N99S, L100R, N101V
notes: scFv
B15: A6 (scFv, V domains shown)
VH: B1 VH
VL: B1 VL with N99W, N101H
notes: scFv
B16: 170-15 (scFv, V domains shown)
VH: B1 VH with K97T, H99S, H102Y, N104Y
VL: B1 VL with T96L, H97T, P98G, N99Y, L100R, N101L
notes: scFv
B17: A3 (scFv, V domains shown)
VH: B1 VH
VL: B1 VL with T96Y, H97P, P98R, L100I, N101L
notes: scFv
B18: A4 (scFv, V domains shown)
VH: B1 VH
VL: B1 VL with T96R, H97N, N99A, N101T
notes: scFv
B19: B2 (scFv, V domains shown)
VH: B1 VH
VL: B1 VL with T96R, H97P, P98R, N99H, L100A, N101L
notes: scFv
B20: A7 (scFv, V domains shown)
VH: B1 VH
VL: B1 VL with T96H, H97N, P98N, N99F, L100S, N101P
notes: scFv
B21: B9 (scFv, V domains shown)
VH: B1 VH
VL: B1 VL with T96R, H97A, P98A, N99H, L100P, N101Q
notes: scFv
B22: 144-F1 (scFv, V domains shown)
VH: B1 VH
VL: B1 VL with T96H, P98Y, N99T, L100T, N101F
notes: scFv
B23: A2 (scFv, V domains shown)
VH: B1 VH
VL: B1 VL with T96P, H97Y, P98H, N99P, L100I, N101R
notes: scFv
B24: A10 (scFv, V domains shown)
VH: B1 VH
VL: B1 VL with T96N, H97S, N99A, L100T, N101V
notes: scFv
B25: 70-13 (scFv, V domains shown)
VH: B1 VH with K97T, H99S, H102I, N104Y
VL: B1 VL with R94S, G95S, T96L, H97R, P98G, N99S, L100R, N101V
notes: scFv
B26: 170-19 (scFv, V domains shown)
VH: B1 VH with K97T
VL: B1 VL with T96F, H97T, P98D, N99Y, L100K, N101V
notes: scFv
B27: A1 (scFv, V domains shown)
VH: B1 VH
VL: B1 VL with T96L, H97P, P98R, N99L, L100T, N101H
notes: scFv
B28: B7 (scFv, V domains shown)
VH: B1 VH
VL: B1 VL with T96D, H97S, P98N, N99H, L100D, N101L
notes: scFv
B29: 101-5 (scFv, V domains shown)
VH: B1 VH with K97T, H99S, H102I, N104Y
VL: B1 VL with R94S, G95S, T96L, H97T, P98G, N99S, L100R, N101V
notes: scFv
B30: B8 (scFv, V domains shown)
VH: B1 VH
VL: B1 VL with T96H, H97T, P98A, N99H, N101Y
notes: scFv
B31: 31-B5 (scFv, V domains shown)
VH: B1 VH
VL: B1 VL with N99S, L100I, N101S
notes: scFv
B32: 43-G3 (scFv, V domains shown)
VH: B1 VH
VL: B1 VL with T96I, H97W
notes: scFv
B33: 156-1 (scFv, V domains shown)
VH: B1 VH with K97T, N104T
VL: B1 VL with G95D, T96F, H97T, P98G, N99S, L100R, N101V
notes: scFv
B34: 156-6 (scFv, V domains shown)
VH: B1 VH with K97T
VL: B1 VL with G95D, T96F, H97T, P98G, N99S, L100R, N101V
notes: scFv
B35: 177-G6 (scFv, V domains shown)
VH: B1 VH
VL: B1 VL with N99T, L100M, N101I
notes: scFv
B36: 177-C6 (scFv, V domains shown)
VH: B1 VH
VL: B1 VL with N99V, L100P, N101A
notes: scFv
B37: 170-11 (scFv, V domains shown)
VH: B1 VH with K97T, H99S, H102Y, N104Y
VL: B1 VL with T96L, H97T, P98G, N99F, L100R, N101V
notes: scFv
B38: 170-21 (scFv, V domains shown)
VH: B1 VH with K97T, H102Q
VL: B1 VL with T96F, H97T, P98G, N99P, L100R, N101L
notes: scFv
B39: A12 (scFv, V domains shown)
VH: B1 VH
VL: B1 VL with H97T, N99R, L100P, N101M
notes: scFv
B40: 101-9 (scFv, V domains shown)
VH: B1 VH with K97T, H102Y, N104Y
VL: B1 VL with R94S, G95S, T96L, H97T, P98G, N99S, L100R, N101V
notes: scFv
B41: A11 (scFv, V domains shown)
VH: B1 VH
VL: B1 VL with H97F, N99S, L100P, N101Q
notes: scFv
B42: 156-3 (scFv, V domains shown)
VH: B1 VH with K97T, N104T
VL: B1 VL with R94N, T96F, H97T, P98G, N99A, L100R, N101V
notes: scFv
B43: 70-7 (scFv, V domains shown)
VH: B1 VH with K97T, H99R, G100R, S101R, H102S, D103N, N104Y
VL: B1 VL with R94S, G95S, T96L, H97R, P98G, N99S, L100R, N101V
notes: scFv

biological target: T1, human IL-12 (human, UniProt P29459 23-219; P29460 23-328); assay: SPR (BIAcore), IL-12 chip
T1 construct: recombinant human IL-12 heterodimer (p35/p40, disulfide-linked); also called hIL-12; rhIL-12
T1 sequence (looked up) 1: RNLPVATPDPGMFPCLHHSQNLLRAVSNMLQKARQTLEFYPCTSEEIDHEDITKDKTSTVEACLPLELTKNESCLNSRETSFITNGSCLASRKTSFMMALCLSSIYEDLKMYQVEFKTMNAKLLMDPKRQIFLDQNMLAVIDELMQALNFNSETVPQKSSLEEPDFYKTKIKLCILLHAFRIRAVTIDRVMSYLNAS
T1 sequence (looked up) 2: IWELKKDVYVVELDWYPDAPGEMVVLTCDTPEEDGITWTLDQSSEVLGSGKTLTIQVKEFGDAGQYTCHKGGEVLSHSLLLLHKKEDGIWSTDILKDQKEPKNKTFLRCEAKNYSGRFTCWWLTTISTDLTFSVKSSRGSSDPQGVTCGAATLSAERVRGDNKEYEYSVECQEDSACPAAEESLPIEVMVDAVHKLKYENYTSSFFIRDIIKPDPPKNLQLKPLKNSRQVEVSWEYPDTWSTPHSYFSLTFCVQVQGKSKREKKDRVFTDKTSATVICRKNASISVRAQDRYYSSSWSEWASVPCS
From the text: The system utilizes the optical properties of SPR to detect alterations in protein concentrations within a dextran biosensor matrix. Proteins are covalently bound to the dextran matrix at known concentrations. […] To determine the off rate (koff), on rate (kₒₙ), association rate (Ka) and dissociation rate (Kd) constants, BIAcore kinetic evaluation software (version 2.1) was used.

Compared with B1, B2 is 15-fold higher in koff: 0.0005 s⁻¹ for the first, 0.00752 s⁻¹ for the second.

First: B3
Second: B4
The koff of the first is 8-fold higher: 0.033 s⁻¹ for the first, 0.00412 s⁻¹ for the second.

First: B5
Second: B6
The koff of the first is 2.1-fold lower: 0.00112 s⁻¹ for the first, 0.00235 s⁻¹ for the second.

B7 and B8 are within 1.5-fold of each other in koff: 0.00304 s⁻¹ for the first, 0.00344 s⁻¹ for the second.

Going from B9 to B10, the koff falls from 0.00798 s⁻¹ to 0.0007 s⁻¹ (11-fold).

First: B11
Second: B12
The koff of the first is 600-fold higher: 0.006 s⁻¹ for the first, 1e-05 s⁻¹ for the second.

First: B13
Second: B14
The koff of the first is 3.4-fold higher: 0.00976 s⁻¹ for the first, 0.0029 s⁻¹ for the second.

Compared with B15, B16 is 2.4-fold higher in koff: 0.00187 s⁻¹ for the first, 0.00443 s⁻¹ for the second.

Going from B17 to B18, the koff falls from 0.00251 s⁻¹ to 0.00147 s⁻¹ (1.7-fold).

B19 and B20 are within 1.5-fold of each other in koff: 0.00361 s⁻¹ for the first, 0.00395 s⁻¹ for the second.

Compared with B21, B22 is 15-fold lower in koff: 0.00866 s⁻¹ for the first, 0.00058 s⁻¹ for the second.

Compared with B23, B24 is 2-fold lower in koff: 0.0038 s⁻¹ for the first, 0.00187 s⁻¹ for the second.

Going from B25 to B26, the koff falls from 0.072 s⁻¹ to 0.001 s⁻¹ (72-fold).

B27 and B28 are within 1.5-fold of each other in koff: 0.00566 s⁻¹ for the first, 0.00545 s⁻¹ for the second.

First: B29
Second: B30
The koff of the first is 19-fold higher: 0.0445 s⁻¹ for the first, 0.0024 s⁻¹ for the second.

Compared with B31, B32 is 1.8-fold higher in koff: 0.0005 s⁻¹ for the first, 0.0009 s⁻¹ for the second.

Going from B33 to B34, the koff falls from 0.005 s⁻¹ to 0.003 s⁻¹ (1.7-fold).

B35 and B36 are within 1.5-fold of each other in koff: 0.00055 s⁻¹ for the first, 0.000794 s⁻¹ for the second.

Compared with B37, B38 is 8.4-fold higher in koff: 0.00044 s⁻¹ for the first, 0.00369 s⁻¹ for the second.

Compared with B39, B40 is 6-fold higher in koff: 0.00143 s⁻¹ for the first, 0.00854 s⁻¹ for the second.

Going from B41 to B42, the koff rises from 0.00207 s⁻¹ to 0.009 s⁻¹ (4.3-fold).

B43 was tested, and the koff was 0.129 s⁻¹.
